Stoichiometry N data for two substances are collected here from article PMC8229645.

Test [1] addresses Human astrovirus 6 capsid spike (Spike 6) (human astrovirus serotype 6). Nature of the test: SEC. Background: SEC sorts molecules by how far they enter the pores of the column.
The target of test [2] is Human astrovirus 2 capsid spike (Spike 2) (human astrovirus serotype 2). Put plainly: SEC.

As a reminder, the stoichiometry N is the number of molecules, sites or subunits per partner or assembly. “Human astrovirus 6 capsid spike (Spike 6) (domain or fragment)” showed a stoichiometry N in test [1] of 2. Take “Human astrovirus 2 capsid spike (Spike 2) (domain or fragment)”: in test [2], the stoichiometry N came out at 2.
